Laboratory results taken from the DeepSol protein solubility set.

Assay: soluble on expression in E. coli; label from the status in PepcDB or PDB records

Sequence | soluble on expression in E. coli
MTGSATRFGGSPGPVFALEKGERVEQMKLFKTYKEQVELLGQRGMQIDNSERAEKLLAQLNYYRLSGYWYPMRRFSPQNGIAQDEFVDGASFDLVVALYEFDERLRHSVFIELDRVELAIQTRLGHELGRLDPLIYLDPQRLGARASQRGKGERTVHEVWIGKYQSALKASKEDFVAHHNSKYGGTLPIWAAVEVMDWGMLSYLYGMSPNIVRKRIAEPCGLTGPQLESWLKSLNILRNYAAHHARMFNRVYDIKPKLNNDPKLTPVANRMNRVFGQLSMIQYLHHQLGLSQADRLTRLFNTYPHNPIVPLSRTGAPENWQELALWVP | not soluble
MKVLFVCSGGMSSAIVVNALKKEAEKKGVNMEVHAIGTSEVEEEVKNGWDVVMVAPQVRHRFDSVKKFAEEESIPCGIIPPQAYTPLGGPTLLKTVNDLIR | not soluble
MIKKQDPLNHPESVDVAIIGAGPAGAVAAALLRQAGQQVLVLERQHFPRFSIGESLLPQSMAYLEQAGMLRAVVEAGFQYKNGAYFVHGDKTAAFDFRDKHSDGWGTTYQVERAAFDQILINCAADQGADVRFGHSVRAVQPGDAPVLEVQTESGDTYTVHARFILDASGFGRVLPRLLNLEAPTGMPLRAALFSHVQDALPAGMTDRNKICIAVHPERRDVWYWMIPLANGRSSVGCVAEASFLDIPEAEREAALRALIRAEPNIASLIGDAPFLMPVRHIGGYAANVEKLHGPGYALLGNAGEFLDPVFSSGVTIALRSADLAVRALLRQLAGETVDWQSVYDVPLRRGIDTFRAFIERWYTGELQDIIFHPQQAPGIRRMISAILAGYAWDETNPFVADPVRRLNTLHEVCRLEAVLEHHHHHH | not soluble
MSTPHINVIGAGLAGSEAAWQIAERGIAVHLYEMRPVKQTPAHHTDKFAELVCSNSLRGNSLTNAVGVLKEEMRRLNSVIIRSADRCSVPAGGALAVDRHEFAQAVTEAVREHPNVTVFTEEIQKIPDGPTVIATGPLTSKALSEQLKQLTGEEYLYFYDAAAPIIETDSINMDKVYLKSRYDKGEAAYLNCPMTEEEFDRFYEALISAETVPLKEFEKEVFFEGCMPVEVMAKRGKKTLLFGPMKPVGLEDPKTGKRPYAVVQLRRDNQSGTLYNIVGFQTHLKWGPQKEVIQLIPGLENAEIVRYGVMHRNTFINSPNLLKPTYQYKKRKDLFFAGQITGVEGYVESAAAGLVAGLNAARLVQSKELVVFPDTTMLGSMANYITTANSKNFQPMNANFGLLPPLDTRIKDKKTRYETLAGRALESIQNFVKKMLEHHHHHH | soluble
MSLNIVSMAREASSHKNSGKKKAIVKFIIRTLLHYSYIKKMNDNFAHDERKMLFKKQPNFLTKCITPYLRNGLSRQEIIDILVKHYDWFEYKFSTDARHQIYDDVLTLYKLEIDEQDYLINLSFDRNSRKEGELTLTLTDSKYNKYYVLAFTVVDNDIYIGCMQGGANDNGFSKLFTKSIYGLRPKSFMVETLRLLAVNLNINHIYAVKNSAHIYTAKRYGKKSKMIGLDYDRLWKEHNGESHNDYFYVLPIKSERKAMEDIKRPKRKMYRERYAWLDNYDKELKNTLDYICNEGHHHHHH | not soluble
MAHHHHHHMNRSSSTSVNKDNVLQLTYYEIFSLDEVAESIDLQALHRAYRRFALLFHPDKDASPEAREAFLRVKLAAETLSDPIKRQEYNEQLRREAHEQREVKEQQRECGVGEEAIMAEMILRQKEAESLAKSAAANKEAAEREAAAKKMINELTNALTTPFKQMETALVSEWDIDEGLLDMKVNEIRLLLQKLHNLSCHREGRKGGGGAMGFSSGSEALPTAVKRTREESGVNITA | not soluble
MGHHHHHHSHMIINWNQVSVLWKCLLKQSASYQDRRQSWRRASMKETNRRKSLHPIHQGITELSRSISVDLAESKRLGCLLLSSFQFSIQKLEPFLRDTKGFSLESFRAKASSLSEELKHFADGLETDGTLQKCFEDSNGKASDFSLEASVAEMKEYITKFSLERQTWDQLLLHYQQEAKEILSRGSTEAKITEVKVEPMTYLGSSQNEVLNTKPDYQKNYRTRAKSLTVWSW | not soluble
DIKMTQSPSSMSASLGESVTITCKASRDIKSYLSWYQQKPWKSPKTLIYYATSLADGVPSRFSGSGSGQDYSLTISSLESDDTATYYCLQHGESPFTFGSGTKLELKRADAAPTVSIFPPSSEQLTSGGASVVCFLNNFYPKDINVKWKIDGSERQNGVLNSWTDQDSKDSTYSMSSTLTLTKDEYERHNSYTCEATHKTSTSPIVKSFN | soluble
MSALEETQSLCKQVDDICNNGMESVEQCNKLLDQLSKIPMSIEIIQKTNIGIKVNMMRKKVTDDAVAKRAKNIIKDWKNVVDGKSKSQDDGGAPPAKKHRKESVEEAKPEKKKIEAPYKRPEPSSRPEIVAQFASASFPPKHLENDETRLKSAQLLLSALRFGDMPQGTLDPEELAVQIEEKLYSVHRDTNKSYSAAVRSRIFNLRDKKNLALRENVLTGVVRAEKFATMTSEEMASAEIREMRDKFTKEAILEHQMSVQQGTPSDMFKCGKCGKKNCTYTQLQTRSSDEPMTTFVFCLECGNRWKFC | soluble
VDIYASMTPAKDVGGDFYDFFQIDDERIGLVIADVSGKGVPASLFMAVSRTLLRATALRGVSSAECLTYANKLLCKESLDSMFVTVFYGIYHYKTGMMDYTNAGHNPPYLLRGGRTVECLPVASNFVVGVFDDIEFESNTLTFGIGDTLLLYTDGVTEAFNDKREQFSESNLQDILASMHESSSAKEVVTSVLQSVKTFSGDYPQSDDITLLSLQRIK | not soluble
MGSDKIHHHHHHMDNPVEEHSPTAQTPVLNLDNVPVGVPLEWPIVDADGTLLFATGTILATTDERNFLFGHFHPQRGDLLDAATQPAPESDAHADPGSPLTLKDMHLEIGALIGVRPQVGSGAPMHPCRIIGFAPNHALFVTPPMHDGRMLPMGLGENIEIVAIASHAVFRFVCTIEAICRSPFDYVVLSKPGVIRRLRERKSIRVRTHLAVRFGIGQSGESYEGLGLAKGVSALGMSLAASWTLGAVGDRLRLAFRLKSKDLDTEIETTAVIRNVQQGSGPGTPSTHGLELDQLDATQQMAMKVFVFDRQDDVVYWSSGLK | not soluble
MSLSDPHHPHIQTHNAWVEFPIFDAKSRSLKKAVLGKAGGTIGRNNSNVVVIEALRDITMELNLGDRVGLVGHNGAGKSTLLRLLSGIYEPTRGWAKVTGRVAPVFDLGIGMDPEISGYENIIIRGLFLGQTRKQMQAKVDEIAEFTELGEYLSMPLRTYSTGMRVRLAMGVVTSIDPEILLLDEGIGAVDADFLRKAQSRLQNLVERSGILVFASHSNEFLARLCKTAIWIDHGVIRLAGGIEEVVRAYEGEDAARHVREVLAETEGHHHHHH | soluble
MAASGEEDMSELSPAAAPNLDWYEKPEETHAPEVDLETVIPPAQEPSNPAEPFCPRDLVPVVFPGPVSQEDCCQFTCELLKHILYQRHQLPLPYEQLKHFYRKAPQAEDTARKKAWLATEARNRKCQQALAELESVLSHLRDFFARTLVPQVLILLGGNALSPKEFYELDLSRLAPFGVDQGLNTAACLRRLFRAIFLADPFSELQTPPLMGTIVMVQGHRDCGEDWFQPKLNYRVPSRGHKLTVTLSCGRPSVPAMASEDYIWFQAPVTLKGFHE | not soluble
MGSDKIHHHHHHVTSLISVKRLNKSFPGVRALHEVQFELMAGEVHALMGENGAGKSTLMKILAGVYTRDSGEILYDGQPVEFLSPRDAQAVGVGIIHQELQLMNHLTVAQNIFIGREPRGRLGLLLDEDRLNAQAAAILARMHVSLDPRAVVGALTVARQQMVEIAKALSFDSRVLIMDEPTSALNDAEIAELFRIIRELKSRGVGIVYISHKMDELKQIADRVTVMRDGEYVATVAARDTSVEAIIGMMVGRTLTDIAPSHSVADQGEIALEVRNLNAGPLVRDVSFALRKGEILGFAGLMGAGRTEVARAVFGADPVESGEIVVNGARATIRTPSDAVAHGIGYLSEDRKRFGLATGMDVESNIVMSNLRKFLSLNFFLRRAQIRRTASHFISLLGIRTPSATQAVRLLSGGNQQKIVIAKWLERDCDVLFFDEPTRGIDVGAKNEIYKLLRSLAGEGKAVVMISSELPEILRMSDRVIVMCEGRITGELSAAEATQERIMHLATRRETLKTAA | not soluble
MSLDNKRIEELKEVLKSLNKIGITEELRKEALDIVKNINPIELSIAEQQLIEEGMNPQDLRHLCDIHMEVLKDELTKVKASTSKGHVLYTLIEEHDKILDFLKELEEVNSNIQKTENYDEAKDETHRLYNLAESILDAENHHQREEKVLFLEMEKREITGPTRIMKMEHDDLRAKKKELKMLSKSVDTMDFREFKSKVDEVSKYIIFNLRDHIFKENYILYPSALEAIKDKDMWDDMKRRCDEVGYCSFTFSNEGHHHHHH | soluble
MGSDKIHHHHHHIEAQIKEDLDLIRNGTSLLSLIPNFGMEAVTPWLDEFERGLMYELDFKREIKNIAFFRDMYRDRDDVKIPRPYSRLSTEDVIVMDYTPSVPIVRPFKAERLINMFLEQLLYEGVIHGDLHTGNIGLDSKTGSLVLYDFGNIINITSQYKTAIRDFVYGVQTGNVDAVMDNMVKMGMNVRDREVTRIFVKQYFDYLQTLDLTSFTINSPEIREKASKVPVELDSTTLTILRTYSLLEGLAKELDPSFSYARIINKNVELLFLDLEYIMYRIQKDTSS | not soluble
STLQPRCEDVETAEGVALTVTGVAQVKIMTEKELLAVACEQFLGKNVQDIKNVVLQTLEGHLRSILGTLTVEQIYQDRDQFAKLVREVAAPDVGRMGIEILSFTIKDVYDKVDYLSSLGKTQTAVVQRDADIGVAEAERDAGIREAECKKEMLDVKFMADTKIADSKRAFELQKSAFSEEVNIKTAEAQLAYELQGAREQQKIRQEEIEIEVVQRKKQIAVEAQEILRTDKELIATVRRPAEAEAHRIQQIAEGEKVKQVLLAQAEAEKIRKIGEAEAAVIEAMGKAEAERMKLKAEAYQKYGDAAKMALVLEALPQIAAKIAAPLTKVDEIVVLSGDNSKVTSEVNRLLAELPASVHALTGVDLSKIPLIKKATGVQV | not soluble
MGHHHHHHSHMENKGVVALYHYFYGPALIPYFSHTHNPQRSPDFSERQRRREITLTVDGFVPPSSTEDLGDGFYSYAWTNQQVINPGEYLVCHLEGRDINVINGGFTPRDTAPLYAVQAFQDEETNGSLSFIILCKPKEPYRFI | not soluble
NTAPSLTVPECAICLQTCVHPVSLPCKHVFCYLCVKGASWLGKRCALCRQEIPEDFLD | soluble
MHRTTRIKITELNPHLMCVLCGGYFIDATTIIECLHSFCKTCIVRYLETSKYCPICDVQVHKTRPLLNIRSDKTLQDIVYKLVPGLFKNEMKRRRDFYAAHPSADAAN | soluble
MLHRIANGIIEEAAENGCTIIAFEELSGTRDRLPEASWGHKWAFERLYEYVKYKSELHGIDVAVVDPENTSRRCSHCGFTHPDNRDSEAFVCLKCGYENHADYNAAKNIGLRYLRRNQTGDGGGAPVGVRLNRGTLNANGEYETPAGDSGQSGSPRESPTLNEARSSDRAKLEHHHHHH | not soluble
EKDKYALALKDKGNQFFRNKKYDDAIKYYNWALELKEDPVFYSNLSACYVSVGDLKKVVEMSTKALELKPDYSKVLLRRASANEGLGKFADAMFDLSVLSLNGDFNDASIEPMLERNLNKQAMSKLKEKFGDIDTATATPTELSTQPAKERKDKQENLPSVTSMASFFGIFKPELTFANYDESNEADKELMNGLSNLYKRSPESYDKADESFTKAARLFEEQLDKNNEDEKLKEKLAISLEHTGIFKFLKNDPLGAHEDIKKAIELFPRVNSYIYMALIMADRNDSTEYYNYFDKALKLDSNNSSVYYHRGQMNFILQNYDQAGKDFDKAKELDPENIFPYIQLACLAYRENKFDDCETLFSEAKRKFPEAPEVPNFFAEILTDKNDFDKALKQYDLAIELENKLDGIYVGIAPLVGKATLLTRNPTVENFIEATNLLEKASKLDPRSEQAKIGLAQMKLQQEDIDEAITLFEESADLARTMEEKLQAITFAEAAKVQQRIRSDPVLAKKIQET | soluble
MQVNFSSFLDNFFAMQVCREMTRNDVKFAISPQFLRISRHPHIP | not soluble
